Details: other: succinylation at K130

Row | Substance | degradation_or_half_life | enzymatic_activity | localisation_or_trafficking
1 | superoxide dismutase 2 (SOD2): CPT1A knockdown | no change | decreases | decreases
2 | superoxide dismutase 2 (SOD2): K130R |  | decreases | decreases
3 | superoxide dismutase 2 (SOD2): ST1326 (CPT1A inhibitor, 10 μM, 48 h) |  | decreases | 
